Results published in patent US20100150906A1 (AC IMMUNE S A, published 2010).
No end group written: not given here.

T1: peptide A17 of the second library (aa 12-20, L17 to alanine) (also: biotinylated, position not given here)
T1 peptide: VHHQKAVFF

T2: peptide A20 of the second library (aa 12-20, F20 to alanine) (also: biotinylated, position not given here)
T2 peptide: VHHQKLVFA


Legend:
[1] = target: peptide A16 of the second library (aa 12-20, K16 to alanine) (biotinylated (position not given)); assay: ELISA, biotinylated alanine-substituted peptides on streptavidin plate, O.D. 405 nm [middle chart, Figure 2]
Excerpt: (§1) One library comprised a total of 33 biotinylated peptides covering the complete amino acid (aa) sequence of Aβ1-42 (produced by Mimotopes and purchased from ANAWA Trading SA), the second library contains biotinylated peptides using peptide 12 (aa12-20 of Aβ) from the first peptide library and substituting each aa in the sequence by an alanine (see table 8 below), and the third library contains biotinylated peptides 13, 14, or 15 (aa 13-21, 14-22 or 15-23 of Aβ) and substituting in each case the last amino acids to an alanine or to a glycine for aa 21 which is already an alanine (see table 9 below). A biotinylated complete Aβ1-42 peptide was used as positive control (Bachem). Epitope mapping was done according to the manufacturer's (Mimotopes) instructions. Briefly, Streptavidin coated plates (NUNC) were blocked with 0.1% BSA in PBS overnight at 4° C. After washing with PBS-0.05% Tween 20, plates were coated for 1 hour at RT with the different peptides from the library, diluted in 0.1% BSA, 0.1% Sodium Azide in PBS to a final concentration of 10 μM. […] Plates were washed again and incubated with alkaline phosphatase conjugated goat anti human IgG for 1 h at RT.

[2] = target: peptide A19 of the second library (aa 12-20, F19 to alanine) (biotinylated (position not given)); assay: as above
Excerpt: as §1

[3] = target: T1, peptide A17 of the second library (aa …); assay: as above
Excerpt: as §1

[4] = target: T2, peptide A20 of the second library (aa …); assay: as above
Excerpt: as §1

[5] = target: T3, amyloid beta 1-42 fibers (UniProt P05067 672-713); assay: SPR (Biacore X), fibrillar Aβ1-42 on CM5 chip, average of experiments
T3 construct: domain: amyloid beta 1-42; Many copies per fiber; also called Aβ1-42 fibers; fibrillar Aβ1-42
Procedure: (§2) The interactions between AC immune's lead antibody mACI-01-Ab7 C2 (mC2) with amyloid peptide Aβ₁₋₄₂ was studies using surface plasmon resonance. The binding of the mouse antibody mACI-01-Ab7 C2 to either monomers or fibers of Aβ₁₋₄₂ were determined.
(§3) All SPR experiments were carried out on a Biacore X instrument (Biacore AB). Reagents for immobilization (EDC, NHS and ethanolamine), sensor chips CM5 and SA as well as running and sample buffer HBS-EP were purchased from Biacore AB. Sodium acetate (10 mM, pH 5.0) was used as coupling buffer to increase coupling yield. Fibrillar Aβ₁₋₄₂ (BAchem) was prepared by adding PBS buffer to Aβ₁₋₄₂ to a final concentration of 3 mg/ml and leaving the vials at 37° C. for 7 days. Fibrillar Aβ₁₋₄₂ was coupled to a CM5 sensor chip containing a surface-bound carboxymethyl dextran matrix. Biotinylated monomeric Aβ₁₋₄₂ (Bachem) was coupled to a Sensor chip SA consisting of carboxymethyl dextran matrix with covalently attached Streptavidin. Typically four or five concentrations of mAb were assayed by serial dilutions using running buffer. Injections were performed starting from the lowest concentration and were passed over both fc 1 and 2 at a flow rate of 30 μL'min for 3 min. Flow cell 2 was underivatised and responses were subtracted from fc 1 to correct for instrument noise and bulk refractive changes. After injection was finished, the surfaces were washed immediately with running buffer for 5 min. To remove remaining bound antibody from the Aβ₁₋₄₂ fibrils, surface regeneration was performed by injecting pulses of 10 mM NaOH. Kinetic analysis was performed using algorithms for numerical integration and global analysis using BIAevaluation 3.0. The curves obtained for injections of analyte at different concentrations were overlaid and the baselines adjusted to zero. For curve fitting, all data were fit simultaneously to a 1:1 homogeneous complex.

[6] = target: T4, biotinylated complete Aβ1-42 peptide (Bachem) (UniProt P05067 672-713, biotinylated (position not given)); assay: SPR (Biacore X), biotinylated monomeric Aβ1-42 on SA chip, average of experiments
T4 construct: domain: amyloid beta 1-42; also called Amyloid beta 1-42; whole Aβ1-42 protein
Procedure: as §2, §3

[7] = target: T5, amyloid beta 1-42 monomers (UniProt P05067 672-713); assay: SPR (BIACORE), Aβ1-42 monomers immobilized on CM5 chip, antibody 0.05-1.0 µM; monomers immobilized on a CM5 chip
T5 construct: domain: amyloid beta 1-42; also called Aβ1-42 monomers; amyloid monomers
Procedure: BIACORE® technology utilizes changes in the refractive index at the surface layer upon binding of the antibody to the antigen immobilized on the layer. Binding is detected by surface plasmon resonance (SPR) of laser light refracting from the surface. Analysis of the signal kinetics on rate and off rate allows the discrimination between non-specific and specific interaction. The concentration of antibody used was in the range of 0.05 μM to 1.0 μM.

T3 sequence (P05067 672-713 limits assumed): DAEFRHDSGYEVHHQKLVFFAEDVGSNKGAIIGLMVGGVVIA
T4 sequence (P05067 672-713 limits assumed): as above
T5 sequence (P05067 672-713 limits assumed): as above

Kd [5]	koff [5]	kon [5]	Kd [6]	koff [6]	kon [6]	kon [7]	Binder	binding result [1]	binding result [2]	binding result [3]	binding result [4]
–	–	–	–	–	–	–	humanized anti-human amyloid beta monoclonal antibody hC2 (antibody, human IgG4 S228P, kappa, V domains shown, also called humanized antibody C2; humanized C2) VH: EVQLVESGGGLVQPGGSLRLSCAASGFTFSSYGMSWVRQAPGKGLELVASINSNGGSTYYPDSVKGRFTISRDNAKNSLYLQMNSLRAEDTAVYYCASGDYWGQGTTVTVSS VL: DIVMTQSPLSLPVTPGEPASISCRSSQSLVYSNGDTYLHWYLQKPGQSPQLLIYKVSNRFSGVPDRFSGSGSGTDFTLKISRVEAEDVGVYYCSQSTHVPWTFGQGTKVEIKR	no binding (tested: 200 ng/ml (single concentration))	no binding (tested: 200 ng/ml (single concentration))	no binding (tested: 200 ng/ml (single concentration))	no binding (tested: 200 ng/ml (single concentration))
35 nM	0.0011 s⁻¹	38000 M⁻¹ s⁻¹	250 nM	0.004 s⁻¹	16000 M⁻¹ s⁻¹	18000 M⁻¹ s⁻¹	mouse monoclonal antibody ACI-01-Ab7C2 (antibody, V domains shown, also called mC2; mACI-01-Ab7 C2) VH: EVQLVESGGGLVQPGGSLKLSCAASGFTFSSYGMSWVRQTPDKRLELVASINSNGGSTYYPDSVKGRFTISRDNAKNTLYLQMSSLKSEDTAMYYCASGDYWGQGSTLTVSS VL: DVVMTQTPLSLPVSLGDQASISCRSSQSLVYSNGDTYLHWYLQKPGQSPKLLIYKVSNRFSGVPDRFSGSGSGTDFTLKISRVEAEDLGVYFCSQSTHVPWTFGGGTKLEIK	–	–	–	–
